Test results as given in the supplement of paper PMC7877785.
± gives the uncertainty stated by the source.

Experiment: self-splicing fitness, log relative to wild type (ln ratio); higher = more splicing; Tetrahymena group I intron in knt gene, E. coli kanamycin selection, DiMSum; sequences stand for … in CUCUCU…GGAGGGAAAAGUUAUCAGGCAUGCACCUGGUAGCUAGUCUUUAAACCAAUAGAUUGCAUCGGUUUAAAAGGCAAGACCGUCAAAUUGCGGGAAAGGGGUCAACAGCCGUUCAGUACCAAGUCUCAGGGGAAACUUUGAGAUGGCCUUGCAAAGGGUAUGGUAAUAAGCUGACGGACAUGGUCCUAACCACGCAGCCAAGUCCUAAGUCAACAGAUCUUCUGUUGAUAUGGAUGCAGUUCACAGACUAAAUGUCGGUCGGGGAAGAUGUAUUCUUCUCAUAAGAUAUAGUCGGACCUCUCCUUAAUGGGAGCUAGCGGAUGAAGUGAUGCAACACUGGAGCCGCUGGGAACUAAUUUGUAUGCGAAAGUAUAUUGAUUAGUUUUGGAGUACUCGUGGUCG
Outline: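 DiMSum derived fitness as the error-weighted combination of fold changes across replicates, kanamycin versus no kanamycin, normalised to wild type. E. coli BL21(DE3) held the library, which randomised all eight P1ex-region intron nucleotides within the knt kanamycin-resistance gene on pET-22b(+). Six replicate transformations grew overnight at 37°C or 30°C on LB agar with or without 25 μg/mL kanamycin, also containing 100 μg/mL carbenicillin, 50 μM IPTG and 0.2% rhamnose, and pooled colonies were amplicon-sequenced on an Illumina HiSeq 2500.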

AGAGAGCAAUAUUACGAGGU
self-splicing fitness (ln) (30 °C): -2.98 ± 0.2 | self-splicing fitness (ln) (37 °C): -1.87 ± 0.32

AGAGAGCAAUAUUACGAGUU
self-splicing fitness (ln) (30 °C): -4.21 ± 0.3 | self-splicing fitness (ln) (37 °C): -2.41 ± 0.2

AGAGAGCAAUAUUACGAUAU
self-splicing fitness (ln) (30 °C): -2.21 ± 0.47 | self-splicing fitness (ln) (37 °C): -2.2 ± 0.43

AGAGAGCAAUAUUACGCACG
self-splicing fitness (ln) (30 °C): -2.18 ± 0.38

AGAGAGCAAUAUUACGCAGU
self-splicing fitness (ln) (37 °C): -2.32 ± 0.35

AGAGAGCAAUAUUACGCAUG
self-splicing fitness (ln) (30 °C): -3.23 ± 0.22 | self-splicing fitness (ln) (37 °C): -1.9 ± 0.35

AGAGAGCAAUAUUACGCCGG
self-splicing fitness (ln) (30 °C): -1.82 ± 0.25

AGAGAGCAAUAUUACGCGCA
self-splicing fitness (ln) (30 °C): -3 ± 0.36 | self-splicing fitness (ln) (37 °C): -1.74 ± 0.14

AGAGAGCAAUAUUACGCUAA
self-splicing fitness (ln) (37 °C): -0.209 ± 0.21

AGAGAGCAAUAUUACGGAGU
self-splicing fitness (ln) (30 °C): -3.87 ± 0.4 | self-splicing fitness (ln) (37 °C): -3.3 ± 0.47

AGAGAGCAAUAUUACGGAUU
self-splicing fitness (ln) (30 °C): -2.87 ± 0.2 | self-splicing fitness (ln) (37 °C): -2.57 ± 0.34

AGAGAGCAAUAUUACGGCAA
self-splicing fitness (ln) (37 °C): -1.48 ± 0.4

AGAGAGCAAUAUUACGGCGG
self-splicing fitness (ln) (30 °C): -2.77 ± 0.48

AGAGAGCAAUAUUACGGCUA
self-splicing fitness (ln) (30 °C): -1.86 ± 0.46 | self-splicing fitness (ln) (37 °C): -2.19 ± 0.39

AGAGAGCAAUAUUACGGGAA
self-splicing fitness (ln) (30 °C): -4.12 ± 0.35 | self-splicing fitness (ln) (37 °C): -2.62 ± 0.28

AGAGAGCAAUAUUACGGUAG
self-splicing fitness (ln) (30 °C): -1.46 ± 0.12 | self-splicing fitness (ln) (37 °C): -2.18 ± 0.19

AGAGAGCAAUAUUACGUAAC
self-splicing fitness (ln) (37 °C): -3.26 ± 0.31

AGAGAGCAAUAUUACGUCCU
self-splicing fitness (ln) (30 °C): -2.25 ± 0.12 | self-splicing fitness (ln) (37 °C): -0.89 ± 0.13

AGAGAGCAAUAUUACGUCUU
self-splicing fitness (ln) (30 °C): -2.88 ± 0.19 | self-splicing fitness (ln) (37 °C): -2 ± 0.18

AGAGAGCAAUAUUACGUUAG
self-splicing fitness (ln) (30 °C): -2.77 ± 0.19 | self-splicing fitness (ln) (37 °C): -2.45 ± 0.29

AGAGAGCAAUAUUACGUUUU
self-splicing fitness (ln) (30 °C): -3.68 ± 0.35

AGAUAGCAAUAUUACGACUC
self-splicing fitness (ln) (30 °C): -0.641 ± 0.12 | self-splicing fitness (ln) (37 °C): -0.0202 ± 0.21

AGAUAGCAAUAUUACGAGGA
self-splicing fitness (ln) (30 °C): -2.21 ± 0.21 | self-splicing fitness (ln) (37 °C): -2.65 ± 0.48

AGAUAGCAAUAUUACGAGGG
self-splicing fitness (ln) (30 °C): -3.73 ± 0.41 | self-splicing fitness (ln) (37 °C): -1.77 ± 0.33

AGAUAGCAAUAUUACGAUCC
self-splicing fitness (ln) (30 °C): -1.68 ± 0.38 | self-splicing fitness (ln) (37 °C): -0.656 ± 0.39

AGAUAGCAAUAUUACGAUUA
self-splicing fitness (ln) (30 °C): -0.68 ± 0.15 | self-splicing fitness (ln) (37 °C): -0.852 ± 0.14

AGAUAGCAAUAUUACGCCAA
self-splicing fitness (ln) (30 °C): -2.98 ± 0.38 | self-splicing fitness (ln) (37 °C): -3.38 ± 0.37

AGAUAGCAAUAUUACGCCAU
self-splicing fitness (ln) (30 °C): -2.38 ± 0.12 | self-splicing fitness (ln) (37 °C): -1.27 ± 0.13

AGAUAGCAAUAUUACGCCUA
self-splicing fitness (ln) (30 °C): -1.21 ± 0.099 | self-splicing fitness (ln) (37 °C): -1.29 ± 0.13

AGAUAGCAAUAUUACGCGUG
self-splicing fitness (ln) (30 °C): -1.44 ± 0.1 | self-splicing fitness (ln) (37 °C): -1.01 ± 0.12

AGAUAGCAAUAUUACGCUGA
self-splicing fitness (ln) (30 °C): -1.79 ± 0.14 | self-splicing fitness (ln) (37 °C): -0.681 ± 0.17

AGAUAGCAAUAUUACGGAAG
self-splicing fitness (ln) (30 °C): -3.57 ± 0.22 | self-splicing fitness (ln) (37 °C): -2.02 ± 0.19

AGAUAGCAAUAUUACGGAUA
self-splicing fitness (ln) (30 °C): -4.2 ± 0.42 | self-splicing fitness (ln) (37 °C): -1.23 ± 0.23

AGAUAGCAAUAUUACGGCUG
self-splicing fitness (ln) (30 °C): -0.377 ± 0.12 | self-splicing fitness (ln) (37 °C): -0.792 ± 0.2

AGAUAGCAAUAUUACGGGAA
self-splicing fitness (ln) (30 °C): -3 ± 0.27 | self-splicing fitness (ln) (37 °C): -2.7 ± 0.25

AGAUAGCAAUAUUACGGGCG
self-splicing fitness (ln) (30 °C): -1.16 ± 0.14 | self-splicing fitness (ln) (37 °C): 0.433 ± 0.15

AGAUAGCAAUAUUACGGUAU
self-splicing fitness (ln) (30 °C): -1.43 ± 0.098 | self-splicing fitness (ln) (37 °C): -0.614 ± 0.1

AGAUAGCAAUAUUACGGUCG
self-splicing fitness (ln) (30 °C): -0.105 ± 0.12 | self-splicing fitness (ln) (37 °C): -0.324 ± 0.15

AGAUAGCAAUAUUACGGUUU
self-splicing fitness (ln) (30 °C): -0.692 ± 0.055 | self-splicing fitness (ln) (37 °C): -0.341 ± 0.076

AGAUAGCAAUAUUACGUACU
self-splicing fitness (ln) (30 °C): -0.357 ± 0.15 | self-splicing fitness (ln) (37 °C): -0.0062 ± 0.15

AGAUAGCAAUAUUACGUAGA
self-splicing fitness (ln) (30 °C): -3.03 ± 0.15 | self-splicing fitness (ln) (37 °C): -1.77 ± 0.16

AGAUAGCAAUAUUACGUGGC
self-splicing fitness (ln) (30 °C): -3.18 ± 0.23 | self-splicing fitness (ln) (37 °C): -2.86 ± 0.32

AGAUAGCAAUAUUACGUUUU
self-splicing fitness (ln) (30 °C): -2.35 ± 0.09 | self-splicing fitness (ln) (37 °C): -1.68 ± 0.1

AGCAAGCAAUAUUACGAAAA
self-splicing fitness (ln) (30 °C): -3.39 ± 0.19 | self-splicing fitness (ln) (37 °C): -2.39 ± 0.18

AGCAAGCAAUAUUACGACCA
self-splicing fitness (ln) (30 °C): -0.697 ± 0.09 | self-splicing fitness (ln) (37 °C): -0.178 ± 0.12

AGCAAGCAAUAUUACGAGAU
self-splicing fitness (ln) (30 °C): -3.64 ± 0.24 | self-splicing fitness (ln) (37 °C): -1.27 ± 0.21

AGCAAGCAAUAUUACGAGCC
self-splicing fitness (ln) (30 °C): -1.65 ± 0.37

AGCAAGCAAUAUUACGAUGG
self-splicing fitness (ln) (30 °C): -2.63 ± 0.15 | self-splicing fitness (ln) (37 °C): -2.01 ± 0.2

AGCAAGCAAUAUUACGCACC
self-splicing fitness (ln) (30 °C): -0.646 ± 0.14 | self-splicing fitness (ln) (37 °C): 0.533 ± 0.18

AGCAAGCAAUAUUACGCAGA
self-splicing fitness (ln) (30 °C): -2.73 ± 0.22 | self-splicing fitness (ln) (37 °C): -2.05 ± 0.18

AGCAAGCAAUAUUACGCAGG
self-splicing fitness (ln) (30 °C): -2.95 ± 0.16 | self-splicing fitness (ln) (37 °C): -1.63 ± 0.12
